Measurements reported in patent US20170165338A1.

Target: HLA-A*24 (human)
Experiment: UV-exchange b2m ELISA

Binder	peptide exchange yield [%]
LFIPSSKLLFL	50 to 75
AYTLIAPNI	50 to 75
TYKDEGNDYF	50 to 75
IYLVSIPEL	> 75
IYATEAHVF	50 to 75
RYPDNLKHL	20 to 49
EYNQWFTKL	50 to 75
EYSLFPGQVVI	50 to 75
KYMVYPQTF	> 75
HYSQELSLLYL	> 75
YYGPSLFLL	50 to 75
QYLQDAYSF	> 75
NYYEVHKELF	50 to 75
VYGFQWRHF	> 75
IYSWILDHF	> 75
VYQGHTALL	> 75
RYAEEVGIF	50 to 75
TFSVSSHLF	50 to 75
VYTLDIPVL	> 75

Binder	peptide exchange yield [%]
VYRDETGELF	50 to 75
PYRLIFEKF	20 to 49
YYEVHKELF	> 75
TYIKPISKL	50 to 75
AYLHSHALI	> 75
RYLNKAFHI	50 to 75
YYKSTSSAF	50 to 75
YFIDSTNLKTHF	50 to 75
LYNKGFIYL	> 75
RYPDNLKHLYL	> 75
VYWDSAGAAHF	> 75
IFLDYEAGTLSF	> 75
KFVDSTFYL	> 75
VYVSDIQEL	50 to 75
DYTTWTALL	> 75
TYSVSFPMF	> 75
VYVGGGQIIHL	50 to 75
TYIESASEL	50 to 75
KYPVEWAKF	> 75

Binder	peptide exchange yield [%]
KYTSWYVAL	> 75
AYVVFVSTL	20 to 49
VYEDQVGKF	20 to 49
KYQDILETI	> 75
LYIDRPLPYL	50 to 75
NYINRILKL	> 75
DYLKGLASF	> 75
YYVESGKLF	> 75
LYITEPKTI	50 to 75
RYISDQLFTNF	> 75
LYHDIFSRL	> 75
QYLGQIQHI	50 to 75
VFTRVSSFL	50 to 75
HYPPVQVLF	50 to 75
TYELRYFQI	> 75
KFSSFSLFF	50 to 75
TYGDAGLTYTF	50 to 75
EYINQGDLHEF	50 to 75
